Target: VEGF (UniProt P15692)
Assay: native MS

stoichiometry N: 2
Substance: VEGF (from UniProt P15692-4 1-191) (ligand)

From paper PMC4899112
